Experimental findings from patent US20220204633A1 (UNIVERSIT T Z RICH, published 2022) are described below.

This test deals with T1, human recombinant biotinylated FcRn (Immunitrack) (human, UniProt P55899 24-297; P61769 21-119, limits assumed, biotinylated (site not stated)).
T1 construct: Immobilized on a ProteOn NLC chip for SPR at pH 6.0; also called human FcRn; human recombinant FcRn
Briefly: SPR, human FcRn immobilized, IL-12Fc variants in liquid phase, pH 6.0. Background: Surface plasmon resonance follows binding to a sensor surface in real time, without labels.

T1 sequence (P55899 24-297 limits assumed, chain 1 of 2): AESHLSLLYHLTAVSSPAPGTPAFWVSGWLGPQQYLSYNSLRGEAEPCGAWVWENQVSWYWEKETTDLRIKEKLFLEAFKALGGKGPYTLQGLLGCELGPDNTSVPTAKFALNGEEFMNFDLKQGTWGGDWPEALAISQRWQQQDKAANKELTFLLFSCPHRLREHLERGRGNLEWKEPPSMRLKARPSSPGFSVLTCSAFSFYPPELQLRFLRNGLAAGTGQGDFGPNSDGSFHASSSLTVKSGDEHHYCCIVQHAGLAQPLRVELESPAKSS
T1 sequence (P61769 21-119 limits assumed, chain 2 of 2): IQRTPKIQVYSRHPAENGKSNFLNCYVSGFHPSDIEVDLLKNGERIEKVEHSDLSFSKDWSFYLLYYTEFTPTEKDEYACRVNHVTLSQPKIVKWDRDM

B1: human IL-12Fc NHQ (Fc fusion)
chain: IWELKKDVYVVELDWYPDAPGEMVVLTCDTPEEDGITWTLDQSSEVLGSGKTLTIQVKEFGDAGQYTCHKGGEVLSHSLLLLHKKEDGIWSTDILKDQKEPKNKTFLRCEAKNYSGRFTCWWLTTISTDLTFSVKSSRGSSDPQGVTCGAATLSAERVRGDNKEYEYSVECQEDSACPAAEESLPIEVMVDAVHKLKYENYTSSFFIRDIIKPDPPKNLQLKPLKNSRQVEVSWEYPDTWSTPHSYFSLTFCVQVQGKSKREKKDRVFTDKTSATVICRKNASISVRAQDRYYSSSWSEWASVPCSGGGGSGGGGSGGGGSRNLPVATPDPGMFPCLHHSQNLLRAVSNMLQKARQTLEFYPCTSEEIDHEDITKDKTSTVEACLPLELTKNESCLNSRETSFITNGSCLASRKTSFMMALCLSSIYEDLKMYQVEFKTMNAKLLMDPKRQIFLDQNMLAVIDELMQALNFNSETVPQKSSLEEPDFYKTKIKLCILLHAFRIRAVTIDRVMSYLNASKVDKRVESKYGPPCPPCPAPEFLGGPSVFLFPPKPKDTLMNSRTPEVTCVVVDVSQEDPEVQFNWYVDGVEVHNAKTKPREEQFNSTYRVVSVLTVLHQDWLNGKEYKCKVSNKGLPSSIEKTISKAKGQPREPQVYTLPPSPEEMTKNQVSLTCLVKGFYPSDIAVEWESNGQPENNYKTTPPVLDSDGSFFLYSRLTVDKSRWQEGNVFSCSVMHEALHNQYTQKSLSLSLGK
notes: also called NHQ variant
Consider B1, for which the “fold reduction of affinity against IL-12Fc WT” value was about 8 fold.
